{"source": "patent US20180311371A1", "about": "(Hoffmann-La Roche, published 2018)", "binders": {"B1": {"name": "anti-TPBG antibody 091, Fab fragment (Fab, V domains shown)", "VH": "EVHLLESGGGLVHPGGSLRLSCAASGFTFRSDAMHWVRQAPGKGLEWVSGVSGSGGSPYYADSVKGRFTISRDDSKTTLYLQMNSLRAEDTAVYYCATGGSIAGSYYYYPMDVWGQGTTVTVSS", "VL": "DIQMTQSPSSLSASVGDRVTITCQASQDISNYLNWYQQKPGKAPKLLIYAASTLQIGVPSRFSGSGSGTDFTFTISSLQPEDFATYYCQQANSFPLTFGGGTKVEIK", "notes": "also called Fab2"}}, "key": {"[1]": {"biological_target": "T1, human TPBG (trophoblast glycoprotein), full length, cell surface expressed (human, UniProt Q13641 32-420)", "T1 sequence": "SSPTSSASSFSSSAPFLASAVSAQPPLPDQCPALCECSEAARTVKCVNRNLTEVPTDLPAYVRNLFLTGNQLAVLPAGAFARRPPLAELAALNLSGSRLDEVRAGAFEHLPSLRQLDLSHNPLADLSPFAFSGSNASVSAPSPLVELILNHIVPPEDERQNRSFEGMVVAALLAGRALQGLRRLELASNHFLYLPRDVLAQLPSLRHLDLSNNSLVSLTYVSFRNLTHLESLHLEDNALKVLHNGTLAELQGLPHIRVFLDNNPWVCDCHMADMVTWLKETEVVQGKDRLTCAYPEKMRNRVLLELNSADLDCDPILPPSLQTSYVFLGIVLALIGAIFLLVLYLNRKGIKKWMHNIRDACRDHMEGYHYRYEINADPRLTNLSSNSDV", "assay": "cell-based or functional assay"}, "[2]": {"biological_target": "T1, human TPBG (trophoblast glycoprotein), …", "assay": "cell-based or functional assay", "remark": "listed apart in the source"}, "[3]": {"biological_target": "T1, human TPBG (trophoblast glycoprotein), …", "assay": "cell-based or functional assay", "remark": "listed apart in the source"}, "[4]": {"biological_target": "T1, human TPBG (trophoblast glycoprotein), …", "assay": "cell ELISA on MCF7 cells; titrated from 5 µg/ml"}, "[5]": {"biological_target": "T1, human TPBG (trophoblast glycoprotein), …", "assay": "flow cytometry on SW620 clone 4 cells; ratio of MFI; replicate 1"}, "[6]": {"biological_target": "T2, recombinant extracellular domain of minipig TPBG (Biacore analyte) (minipig)", "T2 chain": "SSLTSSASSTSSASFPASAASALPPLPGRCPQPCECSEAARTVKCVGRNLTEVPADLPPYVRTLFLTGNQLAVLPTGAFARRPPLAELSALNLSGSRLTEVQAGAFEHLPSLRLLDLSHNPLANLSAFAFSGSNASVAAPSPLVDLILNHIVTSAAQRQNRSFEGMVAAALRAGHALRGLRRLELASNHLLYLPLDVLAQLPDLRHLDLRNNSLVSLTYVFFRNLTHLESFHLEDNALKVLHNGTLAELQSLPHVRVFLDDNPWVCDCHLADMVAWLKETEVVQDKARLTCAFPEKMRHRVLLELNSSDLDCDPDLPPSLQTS", "assay": "SPR Biacore T200; Fab captured by anti-huFab, minipig TPBG injected"}, "[7]": {"biological_target": "T3, human TPBG extracellular domain, His6Avi, biotinylated (human, biotinylated)", "T3 construct": "also called huTPBG; human TPBG-AviHis", "T3 chain": "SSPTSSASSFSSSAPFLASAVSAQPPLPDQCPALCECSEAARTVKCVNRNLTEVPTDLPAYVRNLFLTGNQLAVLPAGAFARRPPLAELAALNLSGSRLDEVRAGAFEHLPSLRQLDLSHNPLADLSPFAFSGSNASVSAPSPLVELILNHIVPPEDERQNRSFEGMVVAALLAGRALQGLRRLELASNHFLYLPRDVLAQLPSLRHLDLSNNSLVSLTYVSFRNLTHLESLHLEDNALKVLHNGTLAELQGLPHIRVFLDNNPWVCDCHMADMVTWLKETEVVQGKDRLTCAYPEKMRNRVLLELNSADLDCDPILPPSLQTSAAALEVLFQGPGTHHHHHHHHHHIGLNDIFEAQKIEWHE", "assay": "ELISA; biotinylated TPBG-AviHis on streptavidin plate; Fab titrated from 2 µg/ml"}, "[8]": {"biological_target": "T4, cynomolgus TPBG extracellular domain, His6Avi, biotinylated (cynomolgus, biotinylated)", "T4 construct": "also called cyTPBG; cyno TPBG-AviHis", "T4 chain": "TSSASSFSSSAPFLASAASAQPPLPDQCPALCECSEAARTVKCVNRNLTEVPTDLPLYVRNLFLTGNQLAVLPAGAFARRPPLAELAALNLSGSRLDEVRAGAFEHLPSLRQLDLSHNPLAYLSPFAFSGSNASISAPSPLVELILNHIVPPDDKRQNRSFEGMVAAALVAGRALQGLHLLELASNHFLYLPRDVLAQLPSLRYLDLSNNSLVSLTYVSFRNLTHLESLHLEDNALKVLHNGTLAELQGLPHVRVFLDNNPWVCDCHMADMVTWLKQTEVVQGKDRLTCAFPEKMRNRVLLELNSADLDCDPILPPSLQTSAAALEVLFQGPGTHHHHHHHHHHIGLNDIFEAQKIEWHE", "assay": "ELISA; biotinylated TPBG-AviHis on streptavidin plate; Fab titrated from 2 µg/ml"}, "[9]": {"biological_target": "T5, minipig TPBG extracellular domain, His6Avi, biotinylated (minipig, biotinylated)", "T5 construct": "also called mpTPBG; minipig TPBG-AviHis", "T5 chain": "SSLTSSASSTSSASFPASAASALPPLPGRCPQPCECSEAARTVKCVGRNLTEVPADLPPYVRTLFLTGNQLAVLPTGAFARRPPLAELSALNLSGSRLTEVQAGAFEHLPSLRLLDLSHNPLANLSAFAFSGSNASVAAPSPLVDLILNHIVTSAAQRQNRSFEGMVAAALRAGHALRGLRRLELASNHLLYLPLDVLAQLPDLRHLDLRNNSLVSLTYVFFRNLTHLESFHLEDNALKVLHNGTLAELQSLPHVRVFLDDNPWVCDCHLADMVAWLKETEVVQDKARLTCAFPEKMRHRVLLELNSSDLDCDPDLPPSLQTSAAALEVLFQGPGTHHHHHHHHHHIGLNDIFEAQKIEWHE", "assay": "ELISA; biotinylated TPBG-AviHis on streptavidin plate; Fab titrated from 2 µg/ml"}}, "data": [{"binder": "B1", "values": [{"measurement": "internalization after 0.5 h, MCF7 cells", "setting": "[1]", "value": 16, "unit": "%"}, {"measurement": "internalization after 1.0 h, MCF7 cells", "setting": "[1]", "value": 33, "unit": "%"}, {"measurement": "internalization after 2.0 h, MCF7 cells", "setting": "[1]", "value": 42, "unit": "%"}, {"measurement": "EC50 cytotoxicity, Fab-PE sandwich construct, MCF7", "setting": "[2]", "value": 0.414, "unit": "nM"}, {"measurement": "X-fold higher potency compared to TPBG(H8)PE, MCF7, first experiment", "setting": "[2]", "value": 3, "unit": "fold"}, {"measurement": "X-fold higher potency compared to TPBG(H8)PE, MCF7, second experiment", "setting": "[2]", "value": 2.7, "unit": "fold"}, {"measurement": "EC50 cytotoxicity, Fab-PE sandwich construct, H1975, replicate 1", "setting": "[3]", "value": 0.166, "unit": "nM"}, {"measurement": "EC50 cytotoxicity, Fab-PE sandwich construct, H1975, replicate 2", "setting": "[3]", "value": 0.129, "unit": "nM"}, {"measurement": "EC50 cytotoxicity, Fab-PE sandwich construct, H1975, replicate 3", "setting": "[3]", "value": 0.182, "unit": "nM"}, {"measurement": "EC50", "setting": "[4]", "value": 0.014, "unit": "µg/mL"}, {"measurement": "Fold change pH 7.2 vs pH 5.5", "setting": "[5]", "value": 0.9, "unit": "fold"}, {"measurement": "Kd", "setting": "[6]", "value": 1.74, "unit": "nM"}, {"measurement": "koff", "setting": "[6]", "value": 0.000205, "unit": "s⁻¹"}, {"measurement": "kon", "setting": "[6]", "value": 118000, "unit": "M⁻¹ s⁻¹"}, {"measurement": "EC50", "setting": "[7]", "value": 0.0277, "unit": "µg/mL"}, {"measurement": "EC50", "setting": "[8]", "value": 1.23, "unit": "µg/mL"}, {"measurement": "EC50", "setting": "[9]", "value": 0.0618, "unit": "µg/mL"}]}]}
